Results: patent US20240116985A1 (published 2024)
Starred links: 1 amine or outer side, 2 acyl side, 3 side chain; linkers in the order of their positions; H or OH if unused. Positions of bridges follow the written chain, without caps; N, C: chain ends. Non-standard residues stand in square brackets, D forms with d. Primed or numbered codes have the meaning given here. B5(10) = 2-amino-2-(pent-4-en-1-yl)hept-6-enoic acid, bis(4-pentenyl)glycine, stitching residue bearing both staples, C=CCCCC(CCCC=C)(N[*:1])C(=O)[*:2]; SeN″ = (S)-5-(((allyloxy)carbonyl)(methyl)amino)-2-amino-2-methylpentanoic acid (stapling residue), C=CCOC(=O)N(C)CCC[C@](C)(N[*:1])C(=O)[*:2]; B5(4) = 2,2-bis(4-pentenyl)glycine = 2-amino-2-(pent-4-en-1-yl)hept-6-enoic acid (stitching residue), C=CCCCC(CCCC=C)(N[*:1])C(=O)[*:2]; B5 = 2-amino-2-(pent-4-en-1-yl)hept-6-enoic acid, C=CCCCC(CCCC=C)(N[*:1])C(=O)[*:2]; B5(28) = 2,2-bis(4-pentenyl)glycine, C=CCCCC(CCCC=C)(N[*:1])C(=O)[*:2]; Phe(3-CF3) = N[C@@H](Cc1cccc(C(F)(F)F)c1)C(=O)O; Phe(3,5-F2) = N[C@@H](Cc1cc(F)cc(F)c1)C(=O)O; S7 = C[C@@](CCCCCC=[*:3])(N[*:1])C(=O)[*:2]; Phe(3-F) = N[C@@H](Cc1cccc(F)c1)C(=O)O; Phe(4-F) = N[C@@H](Cc1ccc(F)cc1)C(=O)O; αAllylPro = C=CC[C@@]1(C(=O)O)CCCN1; Aad = N[C@@H](CCCC(=O)O)C(=O)O; S8 = C=CCCCCCC[C@](C)(N)C(=O)O; Aib = CC(C)(N)C(=O)O

T1: beta-Catenin (full-length, Uniprot ID P35222) (Homo sapiens (Human), UniProt P35222 1-781)
T1 construct: also called bCat; B-Catenin
T1 sequence: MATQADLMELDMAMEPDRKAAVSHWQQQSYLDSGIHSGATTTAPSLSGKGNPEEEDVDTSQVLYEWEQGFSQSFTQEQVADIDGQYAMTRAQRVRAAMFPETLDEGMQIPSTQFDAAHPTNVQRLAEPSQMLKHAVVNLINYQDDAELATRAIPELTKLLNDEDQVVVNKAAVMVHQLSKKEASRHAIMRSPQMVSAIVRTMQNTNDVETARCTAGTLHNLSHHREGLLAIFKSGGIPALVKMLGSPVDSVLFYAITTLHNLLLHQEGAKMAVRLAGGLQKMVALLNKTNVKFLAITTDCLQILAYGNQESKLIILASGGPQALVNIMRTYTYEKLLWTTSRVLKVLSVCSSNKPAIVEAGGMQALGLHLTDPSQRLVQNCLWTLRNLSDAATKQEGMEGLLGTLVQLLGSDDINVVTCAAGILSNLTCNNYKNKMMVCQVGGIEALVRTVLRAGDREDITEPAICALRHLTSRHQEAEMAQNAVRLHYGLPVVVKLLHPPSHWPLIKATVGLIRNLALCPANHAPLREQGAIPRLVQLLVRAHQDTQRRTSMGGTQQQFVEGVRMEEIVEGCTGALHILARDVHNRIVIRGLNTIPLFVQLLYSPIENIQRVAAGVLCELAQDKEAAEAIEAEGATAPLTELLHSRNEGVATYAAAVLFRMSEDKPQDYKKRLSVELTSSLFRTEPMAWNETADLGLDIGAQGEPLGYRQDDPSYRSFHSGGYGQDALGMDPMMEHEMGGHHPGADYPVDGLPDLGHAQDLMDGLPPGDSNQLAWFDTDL

T2: full-length beta-Catenin (Uniprot ID P35222) (Homo sapiens (Human), UniProt P35222 2-781)
T2 construct: also called B-Catenin; bCat
T2 sequence: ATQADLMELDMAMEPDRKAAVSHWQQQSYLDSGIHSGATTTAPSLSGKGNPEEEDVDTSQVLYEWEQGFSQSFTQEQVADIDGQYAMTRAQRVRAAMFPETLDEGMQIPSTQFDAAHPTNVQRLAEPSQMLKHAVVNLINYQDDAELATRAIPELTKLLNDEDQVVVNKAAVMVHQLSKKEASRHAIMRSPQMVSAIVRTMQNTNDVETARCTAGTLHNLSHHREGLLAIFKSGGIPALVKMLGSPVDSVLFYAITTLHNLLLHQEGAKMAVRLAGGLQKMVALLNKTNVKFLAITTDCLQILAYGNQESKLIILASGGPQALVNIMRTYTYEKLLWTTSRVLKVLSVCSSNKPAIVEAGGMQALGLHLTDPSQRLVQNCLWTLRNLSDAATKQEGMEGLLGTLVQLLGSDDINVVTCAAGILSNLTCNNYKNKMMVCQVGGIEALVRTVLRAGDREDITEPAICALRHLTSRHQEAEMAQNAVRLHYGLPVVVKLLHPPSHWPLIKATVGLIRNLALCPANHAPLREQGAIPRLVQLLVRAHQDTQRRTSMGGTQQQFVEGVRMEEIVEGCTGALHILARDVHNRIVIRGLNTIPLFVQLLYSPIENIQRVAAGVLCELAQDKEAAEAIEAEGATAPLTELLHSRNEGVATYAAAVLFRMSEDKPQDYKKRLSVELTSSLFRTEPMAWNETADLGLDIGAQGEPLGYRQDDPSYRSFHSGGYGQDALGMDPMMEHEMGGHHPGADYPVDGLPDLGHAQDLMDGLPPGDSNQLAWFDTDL

B1: I-250: Ac-PL3-Asp-Ala-B5-Asp-Asp-Ala-Ala-Phe-Val-S8-3F3MeF-Trp-Gln-NH2 (peptide)
peptide: Ac-[αAllylPro]DA[B5]DDAAFV[S8][Phe(3-CF3)]WQ-NH2
modifications: staple 1-4, 4-11
notes: These are separate isomer compositions
B2: I-254: Ac-PL3-Asp-Ala-B5-Asp-Asp-Ala-Ala-Phe-Val-S8-4F3MeF-Trp-Gln-NH2 (peptide)
peptide: XDAXDDAAFVXFWQ
modifications: not fully specified; N-terminal Ac; PL3 at position 1; B5 at position 4; S8 at position 11; 4F3MeF at position 12; C-terminal NH2; stapled by olefin metathesis (PL3-B5 and B5-S8)
notes: as for B1
B3: I-219: Ac-PL3-Asp-Ala-B5-Asp-Glu-Ala-Ala-35FF-Val-S8-Phe-Trp-Gln-NH2 (peptide)
peptide: Ac-[αAllylPro]DA[B5(4)]DEAA[Phe(3,5-F2)]V[S8]FWQ-NH2
modifications: staple 1-4, 4-11
notes: Stapled (stitched) peptide
B4: I-262: Ac-PL3-Asp-Ala-B5-Asp-Asp-Ala-Ala-Phe-Val-S8-34FF-Trp-Gln-NH2 (peptide)
peptide: XDAXDDAAFVXFWQ
modifications: not fully specified; N-terminal Ac; PL3 at position 1; B5 at position 4; S8 at position 11; 34FF at position 12; C-terminal NH2; stapled by olefin metathesis (PL3-B5 and B5-S8)
notes: It is the earlier-eluting isomer composition
B5: I-260: Ac-PL3-Asp-Ala-B5-Asp-Asp-Ala-Ala-Phe-Val-S8-3FF-Trp-Gln-NH2 (peptide)
peptide: Ac-[αAllylPro]DA[B5(4)]DDAAFV[S8][Phe(3-F)]WQ-NH2
modifications: staple 1-4, 4-11
notes: Stapled peptide
B6: I-263: Ac-PL3-Asp-Ala-B5-Asp-Asp-Ala-Ala-Phe-Val-S8-34FF-Trp-Gln-NH2 (peptide)
peptide: XDAXDDAAFVXFWQ
modifications: not fully specified; N-terminal Ac; PL3 at position 1; B5 at position 4; S8 at position 11; 34FF at position 12; C-terminal NH2; stapled by olefin metathesis (PL3-B5 and B5-S8)
notes: It is the later-eluting isomer composition
B7: I-261: Ac-PL3-Asp-Ala-B5-Asp-Asp-Ala-Ala-Phe-Val-S8-4FF-Trp-Gln-NH2 (peptide)
peptide: Ac-[αAllylPro]DA[B5(4)]DDAAFV[S8][Phe(4-F)]WQ-NH2
modifications: staple 1-4, 4-11
notes: Stapled peptide
B8: I-264: Ac-PL3-Asp-Ala-B5-Asp-Asp-Ala-Ala-3FF-Val-S8-Phe-Trp-Gln-NH2 (peptide)
peptide: Ac-[αAllylPro]DA[B5(4)]DDAA[Phe(3-F)]V[S8]FWQ-NH2
modifications: staple 1-4, 4-11; not fully specified; printed as Ac-PL3-Asp-Ala-B5-Asp-Asp-Ala-Ala-3FF-Val-S8-Phe-Trp-Gln-NH2
notes: as for B4
B9: I-129 (peptide)
peptide: Ac-[αAllylPro]DA[B5(10)]D[Aad]AAFV[S8]FWQ-NH2
modifications: staple 1-4, 4-11
notes: Stitched (two-staple) peptide composition
B10: I-133 (peptide)
peptide: XDAXDEAAFVXFWX
modifications: not fully specified; as printed: Ac-PL3-Asp-Ala-B5-Asp-Glu-Ala-Ala-Phe-Val-S8-Phe-Trp-Aib-NH2; staples PL3(1)-B5(4) and B5(4)-S8(11)
notes: as for B9
B11: I-131 (peptide)
peptide: Ac-[αAllylPro]DA[B5(4)]DEAAFV[SeN″]FWQ-NH2
modifications: staple 1-4, 4-11
notes: Stitched (two-staple) peptide composition; same description as I-130, separate later-eluting HPLC peak (staple isomer)
B12: I-134 (peptide)
peptide: Ac-[αAllylPro]DA[B5(28)]DEAAFV[S8]FW[Aib]-NH2
modifications: staple 1-4, 4-11
notes: as for B9
B13: I-132 (peptide)
peptide: Ac-[αAllylPro]DA[B5(4)]DEAAFV[S7]FWQ-NH2
modifications: staple 1-4, 4-11
notes: as for B9

biological target: T1, beta-Catenin (full-length, Uniprot ID …); test: fluorescence polarization competition: peptide titrated against 10 nM full-length beta-catenin + 10 nM 5FAM-labeled TCF4 residues 10-53 probe
Procedure: (§1) The plate was incubated protected from light for 60 minutes at 20° C. prior to read. Reads were performed on a CLARIOstar plate reader (BMG Labtech) in duplicate, and data were fitted to a 1:1 binding model with hill slope using an in-house script. All provided concentrations are final concentrations.

IC50 [µM] | Binder
5 | B1
5 | B2
2.85 | B3
5 | B4
5 | B5
5 | B6
5 | B7
5 | B8

biological target: T2, full-length beta-Catenin (Uniprot ID …); test: fluorescence polarization competition; 5FAM-TCF4(10-53) probe with full-length beta-catenin
Procedure: as §1

EC50 [µM] | Binder
1.98 | B9
5 | B10
2.16 | B11
2.7 | B12
5 | B13

biological target: T2, full-length beta-Catenin (Uniprot ID …); test: Alphascreen competition; biotin-TCF4(10-53) probe with full-length beta-catenin
Procedure: as §1, with “Equal volume of the titrated peptide was added to the” for “The”, “and” for “was”, “incubated for 15 minutes at 20° C. Then 4 uL of donor and 4 uL acceptor beads at 10 ug/mL were added to the plate, for a 16 uL reaction pool and” for “incubated”

EC50 [µM] | Binder
0.083 | B9
0.4 | B11
5.09 | B13
